Measured values: patent US20230340065A1 (published 2023)
Each block holds one binder with its values, some of them ahead of it.

Key:
[1] = target: T1, PRAME peptide on HLA-A*24:02 (human); assay: multimer staining
T1 peptide: LYVDSLFFL

[2] = target: T2, CATSPERB peptide on HLA-A*24:02 (human); assay: cytokine release
T2 peptide: LYYDHLGFL

[3] = target: T3, XXYLT1 peptide on HLA-A*24:02 (human); assay: cytokine release
T3 peptide: YYSDSIFFL

[4] = target: T4, FBXO24 peptide on HLA-A*24:02 (human); assay: cytokine release
T4 peptide: DYVGTLFFL

[5] = target: T5, KCNK12 peptide on HLA-A*24:02 (human); assay: cytokine release
T5 peptide: DYVDSLYFC

[6] = target: T6, PRAME peptide on HLA-A*02:17 (human); assay: cytokine release
T6 peptide: LYVDSLFFL

[7] = target: T7, GTPBP6 peptide on HLA-A*24:02 (human); assay: cytokine release
T7 peptide: LYVDTIGFL

binding result [1]: recognises | binding result [2]: no recognition | binding result [3]: no recognition | binding result [4]: recognises | binding result [5]: no recognition | binding result [6]: recognises | binding result [7]: no recognition
B1: TCR T116-49 (TCR, V domains shown)
Valpha: QQPVQSPQAVILREGEDAVINCSSSKALYSVHWYRQKHGEAPVFLMILLKGGEQKGHEKISASFNEKKQQSSLYLTASQLSYSGTYFCGTANSGGSNYKLTFGKGTLLTVNP
Vbeta: DAGITQSPRHKVTETGTPVTLRCHQTENHRYMYWYRQDPGHGLRLIHYSYGVKDTDKGEVSDGYSVSRSKTEDFLLTLESATSSQTSVYFCAISDYEGTEAFFGQGTRLTVV

binding result [1]: recognises | binding result [2]: recognises | binding result [3]: recognises | binding result [4]: no recognition | binding result [5]: recognises | binding result [7]: recognises
B2: TCR T402-93 (TCR, V domains shown)
Valpha: GQQVMQIPQYQHVQEGEDFTTYCNSSTTLSNIQWYKQRPGGHPVFLIQLVKSGEVKKQKRLTFQFGEAKKNSSLHITATQTTDVGTYFCAGALPRAGSYQLTFGKGTKLSVIP
Vbeta: SQTIHQWPATLVQPVGSPLSLECTVEGTSNPNLYWYRQAAGRGLQLLFYSVGIGQISSEVPQNLSASRPQDRQFILSSKKLLLSDSGFYLCAWSLGAGYTDTQYFGPGTRLTVL
